Data from patent publication US20150291693A1 (FRAUNHOFER GESELLSCHAFT ZUR FORDERUNG DER ANGEWANDTEN …, published 2015).

B1: Gm-H22(scFv) (other)
chain: IIGGREVIPHSRPYMASLQRNGSHLCGGVLVHPKWVLTAAHCLAQRMAQLRLVLGLHTLDSPGLTFHIKAAIQHPRYKPVPALENDLALLQLDGKVKPSRTIRPLALPSKRQVVAAGTRCSMAGWGLTHQGGRLSRVLRELDLQVLDTRMCNNSRFWNGSLSPSMVCLAADSKDQAPCKGDSGGPLVCGKGRVLAGVLSFSSRVCTDIFKPPVATAVAPYVSWIRKVTGRSAAEHEGDAAQPAMAQVQLVESGGGVVQPGRSLRLSCSSSGFIFSDNYMYWVRQAPGKGLEWVATISDGGSYTYYPDSVKGRFTISRDNSKNTLFLQMDSLRPEDTGVYFCARGYYRYEGAMDYWGQGTPVTVSSGGGGSGGGGSGGGGSDIQLTQSPSSLSASVGDRVTITCKSSQSVLYSSNQKNYLAWYQQKPGKAPKLLIYWASTRESGVPSRFSGSGSGTDFTFTISSLQPEDIATYYCHQYLSSWTFGQGTKLEIK
B2: Gm-Ki4(scFv) (other)
chain: IIGGREVIPHSRPYMASLQRNGSHLCGGVLVHPKWVLTAAHCLAQRMAQLRLVLGLHTLDSPGLTFHIKAAIQHPRYKPVPALENDLALLQLDGKVKPSRTIRPLALPSKRQVVAAGTRCSMAGWGLTHQGGRLSRVLRELDLQVLDTRMCNNSRFWNGSLSPSMVCLAADSKDQAPCKGDSGGPLVCGKGRVLAGVLSFSSRVCTDIFKPPVATAVAPYVSWIRKVTGRSAAEHEGDAAQPAMAQVKLQESGTELAKPGAAVKMSCKASGYTFTDYWMHWVKQRPGQGLEWIGYINPNTAYTDYNQKFKDKATLTADKSSSTAYMQLRSLTSEDSAVYYCAKKTTQTTWGFPFWGQGTTVTVSSGGGGSGGGGSGGGGSDIVLTQSPKSMAMSVGERVTLSCKASENVDSFVSWYQQKPGQSPKLLIYGASNRYTGVPDRFAGSGSGRDFTLTISSVQAEDLADYHCGQNYRYPLTFGAGTKLEIKR

What was measured:
[1] = biological target: CD64 (Fc gamma receptor I) (human, UniProt P12314 16-374); test: cell-based or functional assay
CD30 = biological target: T1, CD30 (human, UniProt P28908 19-595); test: cell-based or functional assay
T1 sequence (looked up): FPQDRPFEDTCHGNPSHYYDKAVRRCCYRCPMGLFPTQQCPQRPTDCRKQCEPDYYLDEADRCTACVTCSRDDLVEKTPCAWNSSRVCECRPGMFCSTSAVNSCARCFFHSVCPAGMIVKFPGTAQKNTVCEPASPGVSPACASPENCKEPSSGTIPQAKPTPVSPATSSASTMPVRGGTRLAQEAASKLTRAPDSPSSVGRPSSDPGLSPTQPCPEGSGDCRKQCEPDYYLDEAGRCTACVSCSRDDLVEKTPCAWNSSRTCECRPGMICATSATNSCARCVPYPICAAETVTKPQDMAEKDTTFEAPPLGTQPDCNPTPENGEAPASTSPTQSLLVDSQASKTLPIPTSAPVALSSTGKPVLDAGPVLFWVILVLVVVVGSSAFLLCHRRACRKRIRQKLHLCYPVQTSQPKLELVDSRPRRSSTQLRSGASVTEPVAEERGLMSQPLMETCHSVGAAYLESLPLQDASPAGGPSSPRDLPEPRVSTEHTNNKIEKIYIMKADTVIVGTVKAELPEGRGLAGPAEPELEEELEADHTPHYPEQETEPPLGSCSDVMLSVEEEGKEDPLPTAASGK

Sequence of CD64 (Fc gamma receptor I) (P12314 16-374, form in doubt): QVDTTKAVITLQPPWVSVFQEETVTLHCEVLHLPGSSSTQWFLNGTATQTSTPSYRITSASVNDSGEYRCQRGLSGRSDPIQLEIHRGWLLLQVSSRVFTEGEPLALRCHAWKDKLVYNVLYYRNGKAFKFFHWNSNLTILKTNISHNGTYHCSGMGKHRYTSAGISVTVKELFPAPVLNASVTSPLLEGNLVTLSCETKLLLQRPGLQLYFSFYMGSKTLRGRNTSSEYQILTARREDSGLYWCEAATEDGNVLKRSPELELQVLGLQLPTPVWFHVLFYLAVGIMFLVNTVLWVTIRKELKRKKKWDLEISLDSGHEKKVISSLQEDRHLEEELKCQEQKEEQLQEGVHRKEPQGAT

Row | Binder | IC50, XTT viability assay on Interferon γ stimulated HL60 cells [1] | IC50, XTT viability assay on L540 cells (CD30)
1 | B1 | 1.2 nM | 
2 | B2 |  | 272 nM
